# Assay results: article PMC11258540 (Molecular Cell, 2024)
# Changes are numbered by the printed parent chain. Names may count otherwise. Read-outs that look alike come from different tables or passages of the source.
# B1: human PUS3 D118A, catalytically inactive variant (enzyme, UniProt Q9BZE2 1-481, looked up)
# chain: MAYNDTDRNQTEKLLKRVRELEQEVQRLKKEQAKNKEDSNIRENSAGAGKTKRAFDFSAHGRRHVALRIAYMGWGYQGFASQENTNNTIEEKLFEALTKTRLVESRQTSNYHRCGRTAKGVSAFGQVISLDLRSQFPRGRDSEDFNVKEEANAAAEEIRYTHILNRVLPPDIRILAWAPVEPSFSARFSCLERTYRYFFPRADLDIVTMDYAAQKYVGTHDFRNLCKMDVANGVINFQRTILSAQVQLVGQSPGEGRWQEPFQLCQFEVTGQAFLYHQVRCMMAILFLIGQGMEKPEIIDELLNIEKNPQKPQYSMAVEFPLVLYDCKFENVKWIYDQEAQEFNITHLQQLWANHAVKTHMLYSMLQGLDTVPVPCGIGPKMDGMTEWGNVKPSVIKQTSAFVEGVKMRTYKPLMDRPKCQGLESRIQHFVRRGRIEHPHLFHEEETKAKRDCNDTLEEENTNLETPTKRVCVDTEIKSII
# B2: human PUS3 H355T/T359A (enzyme, UniProt Q9BZE2 1-481, looked up)
# chain: B1 chain with A118D, H355T, T359A
# Key:
# SEC = biological target: the molecule itself; assay: SEC
# [1] = biological target: the molecule itself
Protein,stoichiometry N (SEC),stoichiometry N [1]
B1,2,
B2,,2
